# Measured values: patent publication US11505811B2, “Method for the preparation of 2,4-dihydroxybutyrate” (ADISSEO FRANCE S.A.S., priority 2012, dated 2022)
# Key:
# Type in all cases: biochemical
# [1] = OHB reductase activity, NADH absorption at 340 nm; details: L. lactis Ll-LdhA mutants
# Experimental: (§1) Enzymatic assays: The reaction mixture contained 60 mM Hepes (pH 7), 50 mM potassium chloride, 5 mM MgCl2, 0.25 mM NADH, (optionally 5 mM fructose-1,6-bisphosphate) (all products from Sigma), and appropriate amounts of purified malate or lactate dehydrogenase or cell extract. Reactions were started by adding appropriate amounts of 2-oxo-4-hydroxybutyrate (OHB), pyruvate, or oxaloacetate (OAA). Enzymatic assays were carried out at 37° C. in 96-well flat bottomed microtiter plates in a final volume of 250 μL. The reactions were followed by the characteristic absorption of NADH at 340 nm (εNADH=6.22 mM^−1 cm^−1) in a microplate reader (BioRad 680XR).
# OHB was synthesized by incubating 125 mM homoserine with snake venom (L)-amino acid oxidase (1.25 U/mL, Sigma) and catalase (4400 U/mL, Sigma) in 100 mM Tris buffer at pH 7.8 for 90 min at 37° C. Subsequently, the reaction mixture was purified on an Amicon™ Ultra centrifugal filter with a cut-off of 10 kDa to eliminate the enzymes (method adapted from Wellner & Lichtenberg, 1971).
# OHB was quantified by mixing 100 μL of the tested solution with 1 mL of a solution containing 1 M sodium arsenate and 1 M boric acid at pH 6.5. The mixture was incubated at room temperature for 30 min and the absorbance at 325 nm was used to quantify OHB. The relation between absorbance and concentration of the ketone was calibrated using pyruvate solutions of known concentrations (method adapted from (Wellner & Lichtenberg, 1971)). The typical OHB yield of the method was 90%.
# [2] = pyruvate reductase activity, NADH absorption at 340 nm; details: L. lactis Ll-LdhA mutants
# Experimental: as §1
# [3] = homoserine transaminase activity, coupled dehydrogenase assay; details: measured at 50 mM homoserine; 2-oxoglutarate as acceptor
# Experimental: (§2) Enzymatic assays: Transaminase activity of several candidate aminotransferases was quantified with 2-oxoglutarate as the amino group acceptor. Transaminase reactions were carried out using homoserine and the preferred amino acid of the enzymes. The reactions were followed by the amino acid-dependent oxidation of NADH in the coupled dehydrogenase reaction.
# (§3) Transaminase Assays (Reaction Scheme)
# (§4) Transaminase: Amino acid+2-oxoglutarate→2-oxo-acid+glutamate
# (§5) Dehydrogenase: 2-oxo-acid+NADH→2-hydroxy-acid+NAD^+
# The reaction mixture contained 60 mM Hepes (pH 7), 50 mM potassium chloride, 5 mM MgCl2, 4 mM 2-oxoglutarate, 0.1 mM pyridoxal-5′-phosphate (PLP), 0.25 mM NADH, (optionally 5 mM fructose-1,6-bisphosphate) (all products from Sigma), 4 Units/mL of auxiliary 2-hydroxyacid dehydrogenase, and appropriate amounts of purified aminotransferase or cell extract. The auxiliary dehydrogenase enzyme was purified PanE from L. lactis in case of the amino acids phenylalanine and leucine (Chambellon, Rijnen, Lorquet, Gitton, van HylckamaVlieg, Wouters, & Yvon, 2009), malate dehydrogenase (Sigma) in case of aspartate, and rabbit muscle (L)-lactate dehydrogenase (Sigma) when homoserine was used as the starting substrate. Reactions were started by adding 50 mM of the amino acid.
# (§6) Enzymatic assays were carried out at 37° C. in 96-well flat bottomed microtiter plates in a final volume of 250 μL. The reactions were followed by the characteristic absorption of NAD(P)H at 340 nm (εNADPH=6.22 mM^−1 cm^−1) in a microplate reader (BioRad 680XR).
# [4] = transaminase activity on preferred amino acid (A), coupled dehydrogenase assay; details: superscript (A); 50 mM amino acid; 2-oxoglutarate as acceptor
# Experimental: as §2, §3, §4, §5
# (§7) The reaction mixture contained 60 mM Hepes (pH 7), 50 mM potassium chloride, 5 mM MgCl2, 4 mM 2-oxoglutarate, 0.1 mM pyridoxal-5′-phosphate (PLP), 0.25 mM NADH, (optionally 5 mM fructose-1,6-bisphosphate) (all products from Sigma), 4 Units/mL of auxiliary 2-hydroxyacid dehydrogenase, and appropriate amounts of purified aminotransferase or cell extract. […]
# as §6
# [5] = transaminase activity on preferred amino acid (L), coupled dehydrogenase assay; details: superscript (L); 50 mM amino acid; 2-oxoglutarate as acceptor
# Experimental: as §2, §3, §4, §5, §7, §6
Molecule,Max. specific activity on Homoserine [3],other results
"Q85NI226V: L. lactis lactate dehydrogenase A, Ll-LdhA, mutant Q85N I226V, SEQ ID No. 32 (protein, listed as Lactococcus lactis) MADKQRKKVILVGDGAVGSSYAFALVNQGIAQELGIVDLFKEKTQGDAEDLSHALAFTSPKKIYSADYSDASDADLVVLTSGAPNKPGETRLDLVEKNLRITKDVVTKIVASGFKGIFLVAANPVDILTYATWKFSGFPKNRVVGSGTSLDTARFRQALAEKVDVDARSIHAYIMGEHGDSEFAVWSHANVAGVKLEQWFQENDYLNEAEIVELFESVRDAAYSIVAKKGATFYGVAVALARITKAILDDEHAVLPVSVFQDGQYGVSDCYLGQPAVVGAEGVVNPIHIPLNDAEMQKMEASGAQLKAIIDEAFAKEEFASAVKN",,"Max. specific activity, OHB [1]: 4.9 µmol/mg/min; Max. specific activity, Pyruvate [2]: 11.5 µmol/mg/min"
"Ec-TyrB: aromatic-amino-acid transaminase from E. coli, SEQ ID No. 62 (protein, listed as Escherichia coli) VFQKVDAYAGDPILTLMERFKEDPRSDKVNLSIGLYYNEDGIIPQLQAVAEAEARLNAQPHGASLYLPMEGLNCYRHAIAPLLFGADHPVLKQQRVATIQTLGGSGALKVGADFLKRYFPESGVWVSDPTWENHVAIFAGAGFEVSTYPWYDEATNGVRFNDLLATLKTLPARSIVLLHPCCHNPTGADLTNDQWDAVIEILKARELIPFLDIAYQGFGAGMEEDAYAIRAIASAGLPALVSNSFSKIFSLYGERVGGLSVMCEDAEAAGRVLGQLKATVRRNYSSPPNFGAQVVAAVLNDEALKASWLAEVEEMRTRILAMRQELVKVLSTEMPERNFDYLLNQRGMFSYTGLSAAQVDRLREEFGVYLIASGRMCVAGLNTANVQRVAKAFAAVM",0.057 μmol/(min mgprot),
"Ec-AspC: aspartate transaminase from E. coli, SEQ ID No. 64 (protein, listed as Escherichia coli) MFENITAAPADPILGLADLFRADERPGKINLGIGVYKDETGKTPVLTSVKKAEQYLLENETTKNYLGIDGIPEFGRCTQELLFGKGSALINDKRARTAQTPGGTGALRVAADFLAKNTSVKRVWVSNPSWPNHKSVFNSAGLEVREYAYYDAENHTLDFDALINSLNEAQAGDVVLFHGCCHNPTGIDPTLEQWQTLAQLSVEKGWLPLFDFAYQGFARGLEEDAEGLRAFAAMHKELIVASSYSKNFGLYNERVGACTLVAADSETVDRAFSQMKAAIRANYSNPPAHGASVVATILSNDALRAIWEQELTDMRQRIQRMRQLFVNTLQEKGANRDFSFIIKQNGMFSFSGLTKEQVLRLREEFGVYAVASGRVNVAGMTPDNMAPLCEAIVAVL",0.082 μmol/(min mgprot),Max. specific activity on preferred amino acid (A) [4]: 74.031^(A) μmol/(min mgprot)
"Ll-AraT: aromatic-amino-acid transaminase from L. lactis, SEQ ID No. 66 (protein, listed as Lactococcus lactis) MDLLKKFNPNLDKIEISLIRQFDQQVSSIPDVIKLTLGEPDFYTPEHVKQAGIVAIENNQSHYTGMAGLLELRQAASEFMNKKYGLSYAAEDEILVTVGVTEAISSVLLSILVAGDEVLIPAPAYPGYEPLITLAGGSLVEIDTRANDFVLTPEMLEQAIVEREGKVKAVILNYPANPTGVTYNRGQIKALAEVLKKHEVFVIADEVYSELNYTDQPHVSIAEYAPEQTIVLNGLSKSHAMTGWRIGLIFAARELVAQIIKTHQYLVTSASTQSQFAAIEALKNGAYDALPMKKEYLKRRDYIIEKMSDLGFKIIEPDGAFYIFAKIPADLEQDSFKFAVDFAKENAVAIIPGIAFGQYGEGFVRLSYAASMDMIEQAMARLTDYVTKKRG",0.109 μmol/(min mgprot),
"Ll-BcaT: branched-chain-amino-acid transaminase from Lactococcus lactis, SEQ ID No. 68 (protein, listed as Lactococcus lactis) MAINLDWENLGFSYRNLPFRYIARFKDGKWSAGELTGDNQLHISESSPALHYGQQGFEGLKAYRTKDGSIQLFRPDQNAARLQNTARRLCMAEVPTEMFIDAVKQVVKANEDFVPPYGTGATLYLRPLLIGVGDVIGVKPADEYIFTVFAMPVGSYFKGGLAPSKFVISRDYDRAAPLGTGGAKVGGNYAASLQAEVGAKASGYADAIYLDPSTHTKIEEVGAANFFGITADNEFITPLSPSILPSITKYSLLYLAEHRLGLKAIEGEVYAKDLGKFVEAGACGTAAIISPIGRIDDGEDSYIFHSETEVGPTVKRLYDELVGIQFGDVEAPEGWIVKVD",0.028 μmol/(min mgprot),Max. specific activity on preferred amino acid (L) [5]: 30.39^(L) μmol/(min mgprot)
"Sc-ARO8: aromatic-amino-acid transaminase from Saccharomyces cerevisiae, SEQ ID No. 70 (protein, listed as Saccharomyces cerevisiae) MTLPESKDFSYLFSDETNARKPSPLKTCIHLFQDPNIIFLGGGLPLKDYFPWDNLSVDSPKPPFPQGIGAPIDEQNCIKYTVNKDYADKSANPSNDIPLSRALQYGFSAGQPELLNFIRDHTKIIHDLKYKDWDVLATAGNTNAWESTLRVFCNRGDVILVEAHSFSSSLASAEAQGVITFPVPIDADGIIPEKLAKVMENWTPGAPKPKLLYTIPTGQNPTGTSIADHRKEAIYKIAQKYDFLIVEDEPYYFLQMNPYIKDLKEREKAQSSPKQDHDEFLKSLANTFLSLDTEGRVIRMDSFSKVLAPGTRLGWITGSSKILKPYLSLHEMTIQAPAGFTQVLVNATLSRWGQKGYLDWLLGLRHEYTLKRDCAIDALYKYLPQSDAFVINPPIAGMFFTVNIDASVHPEFKTKYNSDPYQLEQSLYHKVVERGVLVVPGSWFKSEGETEPPQPAESKEVSNPNIIFFRGTYAAVSPEKLTEGLKRLGDTLYEEFGISK",0.076 μmol/(min mgprot),
"Ec-IlvE: branched-chain-amino-acid transaminase from Escherichia coli, SEQ ID No. 60 (protein, listed as Escherichia coli) MTTKKADYIWFNGEMVRWEDAKVHVMSHALHYGTSVFEGIRCYDSHKGPVVFRHREHMQRLHDSAKIYRFPVSQSIDELMEACRDVIRKNNLTSAYIRPLIFVGDVGMGVNPPAGYSTDVIIAAFPWGAYLGAEALEQGIDAMVSSWNRAAPNTIPTAAKAGGNYLSSLLVGSEARRHGYQEGIALDVNGYISEGAGENLFEVKDGVLFTPPFTSSALPGITRDAIIKLAKELGIEVREQVLSRESLYLADEVFMSGTAAEITPVRSVDGIQVGEGRCGPVTKRIQQAFFGLFTGETEDKWGWLDQVNQ",0.077 μmol/(min mgprot),Max. specific activity on preferred amino acid (L) [5]: 10.3^(L) μmol/(min mgprot)
